Target: YB-1 protein, P67809
Sequence (P67809 whole entry, looked up): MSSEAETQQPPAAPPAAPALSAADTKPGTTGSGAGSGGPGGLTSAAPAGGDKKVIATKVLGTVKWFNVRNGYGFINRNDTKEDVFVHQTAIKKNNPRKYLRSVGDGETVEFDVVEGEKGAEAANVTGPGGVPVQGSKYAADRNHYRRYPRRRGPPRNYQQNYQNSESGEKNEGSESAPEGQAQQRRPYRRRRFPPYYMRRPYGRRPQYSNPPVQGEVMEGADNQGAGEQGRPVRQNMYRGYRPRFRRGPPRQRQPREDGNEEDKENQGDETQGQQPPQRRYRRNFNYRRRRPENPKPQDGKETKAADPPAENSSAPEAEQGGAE

B1: serine threonine kinase 32C (STK32C) (protein)
chain: MRSGAERRGSSAAASPGSPPPGRARPAGSDAPSALPPPAAGQPRARDSGDVRSQPRPLFQWSKWKKRMGSSMSAATARRPVFDDKEDVNFDHFQILRAIGKGSFGKVCIVQKRDTEKMYAMKYMNKQQCIERDEVRNVFRELEILQEIEHVFLVNLWYSFQDEEDMFMVVDLLLGGDLRYHLQQNVQFSEDTVRLYICEMALALDYLRGQHIIHRDVKPDNILLDERGHAHLTDFNIATIIKDGERATALAGTKPYMAPEIFHSFVNGGTGYSFEVDWWSVGVMAYELLRGWRPYDIHSSNAVESLVQLFSTVSVQYVPTWSKEMVALLRKLLTVNPEHRLSSLQDVQAAPALAGVLWDHLSEKRVEPGFVPNKGRLHCDPTFELEEMILESRPLHKKKKRLAKNKSRDNSRDSSQSENDYLQDCLDAIQQDFVIFNREKLKRSQDLPREPLPAPESRDAAEPVEDEAERSALPMCGPICPSAGSG
in vitro kinase assay with P32-labeled ATP (YB-1 with serine 165 / serine 167 mutated to alanine as substrate, STK32C as enzyme source): it was confirmed that the serine 167 of the YB-1 substrate protein was phosphorylated by SKT32C

Source: patent publication US20190169692
